Consider two molecules from patent US20130209365A1 (ACADEMIA SINICA, published 2013).

This assay deals with T1, BSA control protein (bovine, UniProt P02769 25-607).
T1 construct: also called bovine serum albumin
Nature of the assay: phage ELISA. (ELISA stands for enzyme-linked immunosorbent assay.)

T1 sequence (P02769 25-607 limits assumed): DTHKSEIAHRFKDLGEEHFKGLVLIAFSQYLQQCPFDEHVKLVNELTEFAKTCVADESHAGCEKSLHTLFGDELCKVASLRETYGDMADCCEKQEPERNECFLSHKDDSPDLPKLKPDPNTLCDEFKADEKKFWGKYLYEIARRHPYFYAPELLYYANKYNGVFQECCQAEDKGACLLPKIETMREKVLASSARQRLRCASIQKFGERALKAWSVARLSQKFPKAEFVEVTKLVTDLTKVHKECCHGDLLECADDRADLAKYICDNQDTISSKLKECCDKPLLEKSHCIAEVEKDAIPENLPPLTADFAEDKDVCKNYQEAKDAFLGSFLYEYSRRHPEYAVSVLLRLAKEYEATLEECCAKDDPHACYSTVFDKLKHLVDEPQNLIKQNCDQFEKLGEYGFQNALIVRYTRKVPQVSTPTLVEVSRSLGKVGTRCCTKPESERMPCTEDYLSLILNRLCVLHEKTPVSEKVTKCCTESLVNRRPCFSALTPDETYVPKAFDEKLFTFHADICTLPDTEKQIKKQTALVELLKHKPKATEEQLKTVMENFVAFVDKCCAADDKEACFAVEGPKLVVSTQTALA

B1: phage-displayed anti-c-Met scFv PC21 (scFv, not shown: large carriers)
scFv: MAEVQLVESGPGLVKPSGTLSLKCDASAISMDSNYWWSWLRQPPGKGLEWIGEISHSGSTDYNPSLKSRATISIDKSKKQFFLRLKSVTAADTAVYYCAGLLSPLDAFDEWGQGTMVTVGGGGSGGGGSGGGGSDIQMTQSPSSLSASVGDRVTITCRASQRVATYLNWYQQKPGKAPNLLIYEASSLQSGVPSRFSGRRSGTDFTLTISSLQPEDFATYYCQQSYNTPYTFGQGTRLEIKR
notes: tested as whole phage; also called anti-c-Met phage clone 21
Regarding B1, the binding result is “no binding”.

B2: phage-displayed anti-c-Met scFv PC1 (scFv, not shown: large carriers)
scFv: MAQVQLQQSGPGLVKPSQTLSLTCDISGDSVSSNSAAWNWIRQSPSRGLEWLGRTYYRSRWYNEYAVSVRGRISINAETSKNQFSLQLNSVTPEDTAIYYCARAGFCSGGNCYPGSEDAFDLWGQGTMVTVGGGGSGGGGSGGGGSDVVMTQSPPSLSVSVGDRVTITCRASQDITNDLNWYQQKPGKAPQLLIYHASELETGVPSRFSGSGFGTDFTLTISSLQPADIATYYCQQYDDLPLTFGGGTKVEIKR
notes: tested as whole phage; also called anti-c-Met phage clone 1
Take B2: the binding result is “no binding”.
